Six sequences from the supplement of paper PMC11246515 can be followed below.

This data set can be described thus: total protein half-life in vivo (active degradation + dilution); higher = more stable protein.
[1] abbreviates: E. coli NCM3722 delta-clpP delta-lon delta-hslV, growth: N-lim chemostat, doubling time 6 h.
[2] abbreviates: E. coli NCM3722 delta-clpP, growth: N-lim chemostat, doubling time 6 h.
Where [3] appears, read: E. coli NCM3722 delta-hslV, growth: N-lim chemostat, doubling time 6 h.
Where [4] appears, read: E. coli NCM3722 delta-lon, growth: N-lim chemostat, doubling time 6 h.
The mark [5] stands for this setting: E. coli NCM3722 delta-smpB, growth: N-lim chemostat, doubling time 6 h.
The mark [6] stands for this setting: wild type E. coli NCM3722, growth: C-lim chemostat, doubling time 3 h.
Setting [7] is: wild type E. coli NCM3722, growth: C-lim chemostat, doubling time 6 h.
Setting [8] is: wild type E. coli NCM3722, growth: C-lim chemostat, doubling time 12 h.
[9] abbreviates: wild type E. coli NCM3722, growth: N-lim chemostat, doubling time 6 h.
Where [10] appears, read: wild type E. coli NCM3722, growth: N-lim chemostat, doubling time 12 h.
Where [11] appears, read: wild type E. coli NCM3722, growth: P-lim chemostat, doubling time 6 h.
[12] abbreviates: wild type E. coli NCM3722, growth: P-lim chemostat, doubling time 12 h.

± gives the standard deviation of the averaged measurements.

Consider “MPKPGILKSKSMFCVIYRSSKRDQTYLYVEKKDDFSRVPEELMKGFGQPQLAMILPLDGRKKLVNADIEKVKQALTEQGYYLQLPPPPEDLLKQHLSVMGQKTDDTNK [P0AB43]”, for which the “total protein half-life in vivo” value is, setting by setting: under setting [1], 4.94 ± 0.22 h; under setting [2], 4.28 ± 0.62 h; under setting [3], 3.56 ± 0.33 h; under setting [4], 4.78 ± 0.62 h; under setting [5], 3.88 ± 0.55 h; under setting [6], 2.71 ± 0.15 h. Further, the “total protein half-life in vivo” value amounted to 4.59 ± 0.29 h under setting [7]; 8.2 ± 0.32 h under setting [8]; 3.5 h under setting [9]; 5.72 ± 0.24 h under setting [10]; 4.48 ± 0.068 h under setting [11]; 8.702 ± 0.013 h under setting [12].

Consider “MAEAQNDPLLPGYSFNAHLVAGLTPIEANGYLDFFIDRPLGMKGYILNLTIRGQGVVKNQGREFVCRPGDILLFPPGEIHHYGRHPEAREWYHQWVYFRPRAYWHEWLNWPSIFANTGFFRPDEAHQPHFSDLFGQIINAGQGEGRYSELLAINLLEQLLLRRMEAINESLHPPMDNRVREACQYISDHLADSNFDIASVAQHVCLSPSRLSHLFRQQLGISVLSWREDQRISQAKLLLSTTRMPIATVGRNVGFDDQLYFSRVFKKCTGASPSEFRAGCEEKVNDVAVKLS [P0A9E0]”, for which the “total protein half-life in vivo” value stood at 5.38 ± 0.2 h under setting [1]; 1.95 h under setting [2]; 1.21 ± 0.4 h under setting [3]; 1.26 ± 0.079 h under setting [4]; 0.763 ± 0.18 h under setting [5]; 0.747 ± 0.18 h under setting [6]. Further, the “total protein half-life in vivo” value is, setting by setting: under setting [7], 1.42 ± 0.059 h; under setting [8], 1.81 ± 0.044 h; under setting [9], 1.08 ± 0.057 h; under setting [10], 1.34 ± 0.25 h; under setting [12], 1.12 h.

As for “MKHYSIQPANLEFNAEGTPVSRDFDDVYFSNDNGLEETRYVFLGGNQLEVRFPEHPHPLFVVAESGFGTGLNFLTLWQAFDQFREAHPQAQLQRLHFISFEKFPLTRADLALAHQHWPELAPWAEQLQAQWPMPLPGCHRLLLDEGRVTLDLWFGDINELTSQLDDSLNQKVDAWFLDGFAPAKNPDMWTQNLFNAMARLARPGGTLATFTSAGFVRRGLQDAGFTMQKRKGFGRKREMLCGVMEQTLPLPCSAPWFNRTGSSKREAAIIGGGIASALLSLALLRRGWQVTLYCADEAPALGASGNRQGALYPLLSKHDEALNRFFSNAFTFARRFYDQLPVKFDHDWCGVTQLGWDEKSQHKIAQMLSMDLPAELAVAVEANAVEQITGVATNCSGITYPQGGWLCPAELTRNVLELAQQQGLQIYYQYQLQNLSRKDDCWLLNFAGDQQATHSVVVLANGHQISRFSQTSTLPVYSVAGQVSHIPTTPELAELKQVLCYDGYLTPQNPANQHHCIGASYHRGSEDTAYSEDDQQQNRQRLIDCFPQAQWAKEVDVSDKEARCGVRCATRDHLPMVGNVPDYEATLVEYASLAEQKDEAVSAPVFDDLFMFAALGSRGLCSAPLCAEILAAQMSDEPIPMDASTLAALNPNRLWVRKLLKGKAVKAG”, the “total protein half-life in vivo” value under setting [1] was 4.59 ± 0.099 h; the “total protein half-life in vivo” value under setting [2] was 4.792 ± 0.021 h; the “total protein half-life in vivo” value under setting [3] amounted to 4.36 ± 0.24 h; the “total protein half-life in vivo” value under setting [4] came to 4.42 ± 0.19 h; the “total protein half-life in vivo” value under setting [5] was 3.84 ± 0.39 h; the “total protein half-life in vivo” value under setting [6] amounted to 2.83 ± 0.03 h. The “total protein half-life in vivo” value was found to be 5.48 ± 0.74 h under setting [7]; 9.73 ± 0.51 h under setting [8]; 4.41 ± 0.17 h under setting [9]; 8.97 ± 0.84 h under setting [10]; 4.57 ± 0.22 h under setting [11]; 7.48 ± 1 h under setting [12].

Regarding “MSSEKLYSPLKVGAITAANRIFMAPLTRLRSIEPGDIPTPLMAEYYRQRASAGLIISEATQISAQAKGYAGAPGIHSPEQIAAWKKITAGVHAENGHMAVQLWHTGRISHASLQPGGQAPVAPSALSAGTRTSLRDENGQAIRVETSMPRALELEEIPGIVNDFRQAIANAREAGFDLVELHSAHGYLLHQFLSPSSNHRTDQYGGSVENRARLVLEVVDAGIEEWGADRIGIRVSPIGTFQNTDNGPNEEADALYLIEQLGKRGIAYLHMSEPDWAGGEPYTDAFREKVRARFHGPIIGAGAYTVEKAETLIGKGLIDAVAFGRDWIANPDLVARLQRKAELNPQRAESFYGGGAEGYTDYPTL”, the “total protein half-life in vivo” value is 5.08 ± 0.17 h under setting [1]; 2.14 ± 0.038 h under setting [2]; 1.51 ± 0.027 h under setting [3]; 1.5 ± 0.061 h under setting [5]; 2.13 ± 0.48 h under setting [6]; 2.98 ± 0.53 h under setting [7]. The “total protein half-life in vivo” value runs as follows: under setting [8], 3.17 ± 0.57 h; under setting [9], 1.66 ± 0.12 h; under setting [10], 2.097 ± 0.015 h; under setting [11], 1.55 ± 0.16 h; under setting [12], 2.85 ± 1.7 h.

As for “MKPTTISLLQKYKQEKKRFATITAYDYSFAKLFADEGLNVMLVGDSLGMTVQGHDSTLPVTVADIAYHTAAVRRGAPNCLLLADLPFMAYATPEQAFENAATVMRAGANMVKIEGGEWLVETVQMLTERAVPVCGHLGLTPQSVNIFGGYKVQGRGDEAGDQLLSDALALEAAGAQLLVLECVPVELAKRITEALAIPVIGIGAGNVTDGQILVMHDAFGITGGHIPKFAKNFLAETGDIRAAVRQYMAEVESGVYPGEEHSFH”, the “total protein half-life in vivo” value under setting [1] turned out to be 6.05 ± 0.05 h; the “total protein half-life in vivo” value under setting [2] stood at 5.86 ± 0.2 h; the “total protein half-life in vivo” value under setting [3] was found to be 6.34 ± 0.95 h; the “total protein half-life in vivo” value under setting [4] was 6.74 ± 0.46 h; the “total protein half-life in vivo” value under setting [5] stood at 6.04 ± 0.64 h; the “total protein half-life in vivo” value under setting [6] amounted to 2.96 ± 0.031 h. The “total protein half-life in vivo” value runs as follows: under setting [7], 6.93 ± 0.31 h; under setting [8], 12.5 ± 2.7 h; under setting [9], 5.51 ± 0.51 h; under setting [10], 12.3 ± 2.8 h; under setting [11], 6.42 ± 1.1 h.

On to “MQAEILLTLKLQQKLFADPRRISLLKHIALSGSISQGAKDAGISYKSAWDAINEMNQLSEHILVERATGGKGGGGAVLTRYGQRLIQLYDLLAQIQQKAFDVLSDDDALPLNSLLAAISRFSLQTSARNQWFGTITARDHDDVQQHVDVLLADGKTRLKVAITAQSGARLGLDEGKEVLILLKAPWVGITQDEAVAQNADNQLPGIISHIERGAEQCEVLMALPDGQTLCATVPVNEATSLQQGQNVTAYFNADSVIIATLC [P0A9G8]”, for which the “total protein half-life in vivo” value under setting [1] came out at 5.338 ± 0.023 h; the “total protein half-life in vivo” value under setting [2] is 5.85 ± 0.37 h; the “total protein half-life in vivo” value under setting [3] came to 6.82 ± 1.4 h; the “total protein half-life in vivo” value under setting [4] was determined as 6.41 ± 0.61 h; the “total protein half-life in vivo” value under setting [5] turned out to be 5.84 ± 0.2 h; the “total protein half-life in vivo” value under setting [6] worked out at 3.04 ± 0.29 h. In addition, the “total protein half-life in vivo” value by setting is: under setting [7], 6.38 ± 0.15 h; under setting [8], 12.7 ± 0.41 h; under setting [9], 5.703 ± 0.02 h; under setting [10], 11.88 ± 0.075 h; under setting [11], 6.2 ± 0.59 h; under setting [12], 12.13 ± 0.038 h.
